Assay results as given in article doi:10.1101/2020.05.03.074682.

Biological target: biotinylated C-terminal cytosolic tail of GCS
Experiment: ITC

“GRASP domain of GRASP55 (recombinant, used for ITC) (domain or fragment)” showed a Kd of 2000 nM.
